Results taken from paper PMC3627599.

T1: MAZ (Homo sapiens (pGEX-hMAZ), UniProt P56270 1-477)
T1 sequence: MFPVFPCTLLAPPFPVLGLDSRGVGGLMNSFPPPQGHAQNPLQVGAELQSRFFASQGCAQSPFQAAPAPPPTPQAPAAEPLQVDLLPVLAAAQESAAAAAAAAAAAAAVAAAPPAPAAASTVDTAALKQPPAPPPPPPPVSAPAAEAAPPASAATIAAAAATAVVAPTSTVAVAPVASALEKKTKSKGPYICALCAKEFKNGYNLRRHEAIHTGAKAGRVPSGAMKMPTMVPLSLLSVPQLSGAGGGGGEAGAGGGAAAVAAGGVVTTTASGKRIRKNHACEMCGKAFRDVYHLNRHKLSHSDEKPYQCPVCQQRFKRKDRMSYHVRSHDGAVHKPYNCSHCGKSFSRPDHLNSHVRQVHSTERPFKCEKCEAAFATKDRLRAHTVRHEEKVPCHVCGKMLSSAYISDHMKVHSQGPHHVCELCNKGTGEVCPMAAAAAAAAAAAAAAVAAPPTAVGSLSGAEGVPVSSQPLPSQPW


Experiments:
MAZ [1] = target: T1, MAZ; test: double-filter binding
MAZ [2] = target: T1, MAZ; test: competition

Binder | Kd (MAZ [1]) | binding result (MAZ [2])
GCGGTGTGGGAAGAGGGAAGAGGGGGAGGCAG (structured_DNA) [32R-3n] | 320 ± 2 nM | 
GCGGTGTGGGAAGAGGGAAGAGGGGGAGGCAG (XNA, AMANY inserted after G10 and after A21; 2 LNA at 3' end) [3044] |  | binds
